In assay [1] the test system is C5aR. Conditions: cited from earlier work. An excerpt: GPCRs represent the largest human membrane protein family, having overall more than 800 members, and constitute a “control panel” of the cell[27]. […] However, the peptidic nat ...
Assay [2] deals with C5aR. The settings on record: cited from earlier work. The source says: G-protein-coupled receptors (GPCRs) are a large family of versatile and dynamic cell surface receptors expressed in almost all tissue types. Upon ligand binding to highly conserved orthosteric binding sites, GPCR pass from a quiescent to an active state, initiating signal transduction. The conservation of orthosteric binding sites throughout the GPCR superfamily and a poor understanding of the mechanism underneath their activation cycle are two key factors currently hampering the development of specific drugs towards a specific sub-type in a GPCR family. […] We simultaneously recorded FD-based AFM height images and adhesion maps (Fig. 3b, c) and extracted FD curves located on C5aR having their native orientation (based on our height criterion) (Fig. 3d). Generally, force-probing methods such as FD-based AFM measure the strength of single bonds under an externally applied force. Described first by the Bell-Evans model, an external force stressing a bond reduces the activation-energy barri ...
The source holds these as a separate data set.

The target in assay [3] is T1, wild type C5a anaphylatoxin chemotactic receptor 1 (C5aR), reconstituted in DOPC/CHS liposomes (human, UniProt P21730 1-350, sulfonated tyrosine residues (Y11 and Y14)).
T1 construct: C5a anaphylatoxin chemotactic receptor 1 (C5aR), human; wild type; Receptors lie in both orientations in the bilayer; also called C5aR^WT; wtC5aR; source: HEK-293S GnTI- cells (BacMam), purified (Ni-NTA, anti-Flag M1 resin, SEC), reconstituted in DOPC/CHS liposomes; not shown: His8, C-terminal, kept
T1 sequence (looked up): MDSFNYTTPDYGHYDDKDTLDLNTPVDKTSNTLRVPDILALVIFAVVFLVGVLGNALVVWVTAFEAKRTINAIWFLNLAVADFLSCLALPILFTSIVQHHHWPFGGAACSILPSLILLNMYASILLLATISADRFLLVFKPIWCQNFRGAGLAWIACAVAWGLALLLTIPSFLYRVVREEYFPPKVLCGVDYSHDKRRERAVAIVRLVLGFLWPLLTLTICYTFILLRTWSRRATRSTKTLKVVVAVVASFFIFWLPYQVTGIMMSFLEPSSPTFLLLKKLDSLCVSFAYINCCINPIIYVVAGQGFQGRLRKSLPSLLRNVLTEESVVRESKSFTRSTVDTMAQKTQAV
The assay can be described thus: AFM dynamic force spectroscopy (FV- and FD-based AFM, Friddle-Noy-de Yoreo fit); PMX53-Gly3-Cys coupled by its Cys to a PEG27-maleimide tip; C5aR (wild type or mutant) in DOPC/CHS liposomes adsorbed on mica; imaging buffer 20 mM HEPES, 300 mM NaCl; ≈24 °C; Kd calculated from ΔGbu = kbT × ln(0.018 Kd). Conditions: both partners purified.

In assay [4] the target is C5aR^WT incubated with PMX53 (effector site blocked) (human) (UniProt P21730). As to the kind of experiment: AFM dynamic force spectroscopy (FV- and FD-based AFM, Friddle-Noy-de Yoreo fit); C5a tethered by its N-terminal His6-tag to a tris-NTA-Ni2+ PEG27 tip; C5aR (wild type, mutant, or wild type incubated with PMX53) in DOPC/CHS liposomes adsorbed on mica; imaging buffer 20 mM HEPES, 300 mM NaCl; ≈24 °C; Kd calculated from ΔGbu = kbT × ln(0.018 Kd).

For assay [5], the target named is T1, wild type C5a anaphylatoxin chemotactic …. The description is as above. The settings on record: both partners purified.
The target in assay [6] is T2, C5aRΔTyr mutant (Y11F and Y14F), reconstituted in DOPC/CHS liposomes (human, UniProt P21730 1-350, Y11F | Y14F).
T2 construct: C5a anaphylatoxin chemotactic receptor 1 (C5aR), human; lack of tyrosine sulfonation validated by western blot; The methods print the mutations as 'Y11F and F14F'; the results print Y11F and Y14F; also called C5aR∆Tyr; source: HEK-293S GnTI- cells (BacMam), purified, reconstituted in DOPC/CHS liposomes
T2 sequence (looked up): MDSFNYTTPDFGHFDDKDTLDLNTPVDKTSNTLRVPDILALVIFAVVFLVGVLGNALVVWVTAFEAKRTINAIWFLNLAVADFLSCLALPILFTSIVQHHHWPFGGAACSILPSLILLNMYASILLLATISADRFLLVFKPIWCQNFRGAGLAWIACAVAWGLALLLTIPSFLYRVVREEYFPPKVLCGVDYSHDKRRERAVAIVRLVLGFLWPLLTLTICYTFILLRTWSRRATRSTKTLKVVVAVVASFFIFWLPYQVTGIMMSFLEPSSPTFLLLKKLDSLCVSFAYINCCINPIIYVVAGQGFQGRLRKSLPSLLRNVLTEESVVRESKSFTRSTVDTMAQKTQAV
The assay is described as above. The settings on record: both partners purified.

The Kd is the free concentration of one partner at which half of the binding sites on the other are occupied at equilibrium, for simple one-to-one binding.

Read-outs that look alike come from different tables or passages of the source. Bridge positions count the residues as written; N and C are the ends. Square brackets hold non-standard residues; d marks the D form. Ends that are not written are not given here. dCha = N[C@H](CC1CCCCC1)C(=O)O; Orn = NCCC[C@H](N)C(=O)O

As to `CCCCn1c(-c2ccccc2)nc(-c2ccccc2)c1CN(Cc1ccc2c(c1)OCO2)Cc1ccc2c(c1)OCO2` [NDT9513727], the antagonist action result with C5aR [1] (recent structural studies) was “allosteric modulators with highly reversible action”.

Take `Cc1ccc(NC(=O)[C@H]2CCCN(C(=O)c3c(C)cccc3F)[C@H]2c2ccc(NC3CCCC3)cc2)cc1C(F)(F)F` [avacopan]: the antagonist action result with C5aR [1] (recent structural studies) was “allosteric modulators with highly reversible action”. In the assay with C5aR [1] (to advance into late-stage clinical trials), the therapeutic efficacy result is “sufficient therapeutic efficacy”.

On to “Ace-Phe-[{Orn}-Pro-{D-Cha}-Trp-Arg] (sidechain bridge or staple) [PMX53, cyclic antagonist peptide that mimics the C-terminal structure of the endogenous C5a ligand]”, for which the “affinity towards the effector site” value with C5aR [2] was “nanomolar affinity”. Also, in the assay on C5aR [1], the antagonist action entry is reported as “potent orthosteric antagonist with insurmountable action”.

B1: PMX53-Gly3-Cys (Cys-Gly3-Phe-[{Orn}Pro-{D-Cha}-Trp-Arg]) (peptide)
chain: CGGGF[Orn]P[dCha]WR
modifications: lactam 6-C; not fully specified; printed as Cys-Gly3-Phe-[{Orn}Pro-{D-Cha}-Trp-Arg]
As for B1, in assay [3], the Kd is 4.7 nM.

B2: complement C5a anaphylatoxin with N-terminal His6-tag (ligand, human, UniProt P01031 678-751, looked up)
chain: TLQKKIEEIAAKYKHSVVKKCCYDGACVNNDETCEQRAARISLGPRCIKAFTECCVVASQLRANISHKDMQLGR
notes: C5a anaphylatoxin, the 74-amino acid cut product of complement C5; numbers count on: C5a itself (R74 is its C-terminal residue); Tethered by its His6-tag to a tris-NTA-Ni2+ PEG27 AFM tip; C5a from R&D Systems is named only for the GTPgammaS assay; also called C5a ligand; endogenous C5a ligand; not shown: His6, N-terminal, kept
Regarding B2, the Kd in assay [4] was 800 mM; in assay [5], around 4.5 nM; in assay [6], around 20 mM. For the same molecule, the equilibrium force Feq in assay [4] was 29 pN. The residence time τ0.5 in assay [4] was 0.2 ms.

The record behind these values is paper PMC7749166 (Communications Biology, 2020).
